Assay: yeast display, Sf9 membrane polyspecificity reagent, FACS + sequencing; frameworks hold sequencing errors
In short: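 Using colony PCR, genes from sorted yeast display clones were amplified, then sequenced on MiSeq at 2 × 250 and filtered by CDR length. The clones had been stained with 10% biotinylated, detergent-solubilized Sf9 membrane reagent for 1 hour at 4 °C and sorted by FACS into low and high (top ~1%) gates on anti-HA and streptavidin fluorescence. Polyreactivity labels come from the gate of origin.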

Sequence | polyreactivity (PSR sort gate)
QVQLVESGGGIVQAGGSLRLSCAASGFIFVANAMGRYRQAPGKERQLVAAISGSGGSTFYADSVKGRFTISRDNAKNTVNLQMNSLKPEDTAGYYCNADAYDYSGYFEYDCWGQGTQETVSS | high polyreactivity
QVQLVESGGGIVQAGGSLRLSCAASGFIFYRYAMGWYRQAPGKERELVAAITGSGARTYYADSVKGRFTISRDNAKNTVYLQMNSLKPEDTAVYYCNARGYRGYDYWGQGTQVTVSS | high polyreactivity
QVQLVESGGGIVQAGGSLRLSCAASGFIFYWNAMGRYRQAPGKERELVAGITSGGDTNYADSVKGRFTISRDNAKITVYLQMNSLKPEDTAVYYCAAEGFRGYGYWGQGTQVTVSS | low polyreactivity
QVQLVESGGGIVQAGGSLRLSCAASGFIISYNAMVWYRQAPGKERELVAAISSRGGSTYYADSVKGRFTISRDNAKNTVYLQMNSLKPEDTAVYYCAVASRRVYTAPYDYWGQGTQVSVSS | high polyreactivity
QVQLVESGGGIVQAGGSLRLSCAASGFISYRNAMGWDRMAPGKERELVASITSSGGRTYYADSVKGRFTISRDNAKNTVYLQMNSLKPEDTAVYDWAADNWYKKQKRPSAYDYWGQGTQVSVSS | high polyreactivity
QVQLVESGGGIVQAGGSLRLSCAASGFNFLRYAMGWYRQAPGKERELVAAISTSGGSTSYADSVKGRFTISRDNAKNTVYLQMNSLNPEDTAVYYCNAVLYKVSISEYDYWGQGTQVTVSS | high polyreactivity
QVQLVESGGGIVQAGGSLRLSCAASGFTFEKNAMGWYRQAPGKERELVAAISRGGSTYADSVKGRFRISRDNAKNTVYLQMNSLKPEDTAVYYCAADTVYIFSSAINGEFGYWGQGTQVTVSS | low polyreactivity
QVQLVESGGGIVQAGGSLRLSCAASGFTFEYYAMGWYRQAPGKERELVADITSGGTYYADSVKGRFTISRDNAKNTVYLQMNSLKPEDTAVYYCAADFGQPYTYYAKENYWGQGTQVTVSS | low polyreactivity
QVQLVESGGGIVQAGGSLRLSCAASGFTFTHYAMGWYRQAPGKERELVAAISPSGGSTYYADSVKGRFTISRDNAKNTVYLQMNSLKTEDTAVFYFAARRDGWVQWGYYYWGQGTEVTVSS | low polyreactivity
QVQLVESGGGIVQAGGSLRLSCAASGFTISRYAMGWDRPAPGKERELVAAITGSGGSTYYADSVKGRFTISRDIAKNTVYLQMNSLKPEDTAVYYCNTMKHYKREYDYWGQGSQVTVSS | high polyreactivity
QVQLVESGGGIVQAGGSLRLSCAASGGTFPWYTMVWYRQAPGKERELVATIRGRDGSTFYADSVKGRFTISRDNAKNTVYLQMNSLIPEVTAVYYCAAVGRRKDLRWGVYYRFDYWGQGTQVTVSS | low polyreactivity
QVQLVESGGGIVQAGGSLRLSCAASGIIFPLYAMGWYRPAPGKERELVAAIRSTGGSTYYADSVKGRFTISRDNANNTVYLQMNSLKPEDTAVYYCNARQNRRQGNVGYWGQGTQVTVSS | low polyreactivity
QVQLVESGGGIVQAGGSLRLSCAASGIIFPYYAMGWYRQAPGKVRELVAAISSSGGSTHYADSVKGRFTISRDTAKNTVYLQMHSLKPEDTAVYYCAARDINRYPKAQPTDRSIYYWRQGTQVTVSS | high polyreactivity
QVQLVESGGGIVQAGGSLRLSCAASGIIIFYKAMGWDRQAPGKERELVATISRRGGSTYYADSVKGRFTISRDNAKNTVYLQMNSLKPEDTAVYYCARDVGAGSKISRLSSYNYWGQGTQVTVSS | low polyreactivity
QVQLVESGGGIVQAGGSLRLSCAASGITFDGYAMGWYRQAPGKERELVAGISWSGARTYYADSVKGRFTISRDNAKNTVYLLMNSLKPEDTALYYCNKVSLRNHGGYDYWGQGNQVTVSS | high polyreactivity
QVQLVESGGGIVQAGGSLRLSCAASGITFFYYAMGWYRQAPGKERELVASISSGGSTYYADSVKGRFTISRDNAKNTVYLQMNSLKPEDTAVYYCAAPTGWYPAYGEYEYWGQGTQVTVSS | low polyreactivity

Sequence | polyreactivity (PSR sort gate)
QVQLVESGGGIVQAGGSLRLSCAASGITFPANAMGWYRQAPGKERELVADISESDGSTYYADSVKGRFTISRDNAKNTVYLQMNSLKPEDTAVYYCAADGTSGTRSDYWGQGTQVTVSS | low polyreactivity
QVQLVESGGGIVQAGGSLRLSCAASGITFPFYTMGWYRQAPGKERELVADISSRGTSTYYADSVKGRFTISRDNAKYTVYLQMNSLNPEDTAVYYCKARATPQRAYDSWGQGTLVTVSS | high polyreactivity
QVQLVESGGGIVQAGGSLRLSCAASGLTFPQYAMGWYTQAPGKERELVAAISWNGGITYYADSVKGRFTISRDYAKNTVYLQMNSLKPEDTAVYYCNDDGGYGDYYYWGQGTQVTVSS | low polyreactivity
QVQLVESGGGIVQAGGSLRLSCAASGLTFRKYAMGWYRQAPGKERELVAAIRFRGGSTYYADSVKGRFTISRDNAKNTVYLQMNSLKPEDTAVYYCNTAPVGLLYGRYDYWGEGTQVTVSS | high polyreactivity
QVQLVESGGGIVQAGGSLRLSCAASGRIFAWNAMGWYRQAPGKERELVAYADSVKGRFTISRDNAKNTVYLQMHSLNPEDSAVYYCAKVVTPYVPGDSYWYDYWGQGTQVTVSS | low polyreactivity
QVQLVESGGGIVQAGGSLRLSCAASGRIFDEYAMGWYRLAPGKERELVAAITYSAGSTYYADSVKGRFTISRDNAKNTVYLQMNSLKPEDTAVYYCAADRYYWWWYTYNYWGQGTQVTVSS | low polyreactivity
QVQLVESGGGIVQAGGSLRLSCAASGRIFLTNAMGWYRQAPGKERELVAAITSGGSTYYADSVKGRFTISRDNAKNTVYLQMNSLKPEDTAVFYCNADTDRYWPYEYDYWGQGTQVTVSS | low polyreactivity
QVQLVESGGGIVQAGGSLRLSCAASGRIFLTNAMGWYRQAPGKERELVADISRGGSTYPDSVKGRFTISRDNAKNTVYLQMNSLKPEDTAVYYCAADEYSPGDSRTRYDYWGQGTQVTVSS | low polyreactivity
QVQLVESGGGIVQAGGSLRLSCAASGRIFRRYAMVWSRQAPGKQRELVAAISSGGGSTYYADSVKGRFTISRDNAKNTVYLQMNSLKPEDTAVFYCDAASSPRYDYWGQGTQVTVSS | high polyreactivity
QVQLVESGGGIVQAGGSLRLSCAASGRIFVDYDMGWYRQATGKERELVATISSGGSTNYADSVKGRFTISRDNAKNTVYLQMNSLKPEDSAVYHCNKDYHVRYYYWGQGTQVTVSS | low polyreactivity
QVQLVESGGGIVQAGGSLRLSCAASGRIFYDHAMGWYRQAPGKERELVAAITSVRSTNYADSVKGRFTISRDNAKNTVNLQMNSLKPEDTAVYYCARASAWYGTLVGKYTKYDYWGQATQVTVSS | low polyreactivity
QVQLVESGGGIVQAGGSLRLSCAASGRILSSYAMGWYRQAPGKERELVARISYSGGRTYYADSVKGRFTISRDNAKNTVYLQMNSQKPEDTAVYYCAAVSRVHFSYIYDYWGQGTQVTVSS | high polyreactivity
QVQLVESGGGIVQAGGSLRLSCAASGRSFDPYAMGWYRQAPGKERELVAAISRSGGSTYYADSVKGRFTISRDNAKNTVYLQMNSLKPEDTAFYYCAADDSRYYYEYDYWGQGTQVTVSS | high polyreactivity
QVQLVESGGGIVQAGGSLRLSCAASGRTFAYNVMGWYRHAPGKERELVAGISFGAGSTYYADSVKGRFTISRDNAKNTVYLQMNSLKPEDTAVYYCATRRRGTRYPRGYDYWGQGTQVTVSS | high polyreactivity
QVQLVESGGGIVQAGGSLRLSCAASGRTFAYYTMGWYRQAPGKERELVARISNRGTNTYYADSVKGRFTISRDNAKNTVYLQMNSLKPEDTAVYYCAKYYYTSIVGYDSWGQGTQVTVSS | low polyreactivity
QVQLVESGGGIVQAGGSLRLSCAASGRTFIRYTRGWYRQAPGKERELVGSIRYSGASTSYADSVKGRFTISRDNAKNTVYLQMNSLKPEDTAVYYCAARFGRYSHRYYYWGQGTQVTVSS | high polyreactivity

From the nanobody polyreactivity screen of Harvey et al. (2022)
